Source: paper PMC6629125, “Lysyl oxidase–like 2 (LOXL2)–mediated cross-linking of tropoelastin” (The FASEB Journal, 2019)

Biological target: T1, full-length lysyl oxidase-like 2 (FL-LOXL2), recombinant human (human, UniProt Q9Y4K0 26-774)
T1 construct: Lysyl oxidase-like 2 (LOXL2), human, full-length cDNA in pcDNA3.1-myc-His, amplified from the start ATG; the protein was secreted by CHO cells; also called LOX-like 2; source: DHFR-deficient CHO cells, transfected, secreted into Opti-MEM; purified (HisTrap, gel filtration)
T1 sequence (looked up): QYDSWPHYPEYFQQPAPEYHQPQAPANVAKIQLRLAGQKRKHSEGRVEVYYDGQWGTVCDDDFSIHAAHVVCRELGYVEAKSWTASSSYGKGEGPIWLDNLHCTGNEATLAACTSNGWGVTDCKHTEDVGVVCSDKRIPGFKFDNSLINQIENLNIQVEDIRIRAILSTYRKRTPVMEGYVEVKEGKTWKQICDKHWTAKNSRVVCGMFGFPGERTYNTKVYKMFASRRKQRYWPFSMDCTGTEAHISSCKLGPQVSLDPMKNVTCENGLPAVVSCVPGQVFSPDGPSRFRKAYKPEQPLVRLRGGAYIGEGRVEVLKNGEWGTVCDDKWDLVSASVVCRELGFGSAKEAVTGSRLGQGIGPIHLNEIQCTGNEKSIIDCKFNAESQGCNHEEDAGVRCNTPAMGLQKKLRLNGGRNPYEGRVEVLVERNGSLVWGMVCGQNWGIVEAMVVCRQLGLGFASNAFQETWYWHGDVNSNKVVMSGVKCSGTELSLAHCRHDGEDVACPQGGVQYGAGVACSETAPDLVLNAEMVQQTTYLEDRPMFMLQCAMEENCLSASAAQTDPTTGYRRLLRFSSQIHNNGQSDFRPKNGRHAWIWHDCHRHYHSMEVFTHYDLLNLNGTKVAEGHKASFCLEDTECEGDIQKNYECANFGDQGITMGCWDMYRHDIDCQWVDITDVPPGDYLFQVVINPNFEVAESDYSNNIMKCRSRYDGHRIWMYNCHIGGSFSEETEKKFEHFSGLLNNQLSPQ
Experiment: SPR; ProteOn XPR36; LOXL2 amine-coupled on a GLC chip; TE as analyte, serial 1:1 dilution from 830 nM; 10 mM Na-HEPES, 150 mM NaCl, 2 mM CaCl2, 0.05% Tween 20, pH 7.4, 25°C; steady-state analysis
Conditions: both partners purified

B1: human tropoelastin, isoform 2 (natural protein, UniProt P15502-2 27-724, looked up)
chain: GGVPGAIPGGVPGGVFYPGAGLGALGGGALGPGGKPLKPVPGGLAGAGLGAGLGAFPAVTFPGALVPGGVADAAAAYKAAKAGAGLGGVPGVGGLGVSAGAVVPQPGAGVKPGKVPGVGLPGVYPGGVLPGARFPGVGVLPGVPTGAGVKPKAPGVGGAFAGIPGVGPFGGPQPGVPLGYPIKAPKLPGGYGLPYTTGKLPYGYGPGGVAGAAGKAGYPTGTGVGPQAAAAAAAKAAAKFGAGAAGVLPGVGGAGVPGVPGAIPGIGGIAGVGTPAAAAAAAAAAKAAKYGAAAGLVPGGPGFGPGVVGVPGAGVPGVGVPGAGIPVVPGAGIPGAAVPGVVSPEAAAKAAAKAAKYGARPGVGVGGIPTYGVGAGGFPGFGVGVGGIPGVAGVPGVGGVPGVGGVPGVGISPEAQAAAAAKAAKYGVGTPAAAAAKAAAKAAQFGLVPGVGVAPGVGVAPGVGVAPGVGLAPGVGVAPGVGVAPGVGVAPGIGPGGVAAAAKSAAKVAAKAQLRAAAGLGAGIPGLGVGVGVPGLGVGAGVPGLGVGAGVPGFGAVPGALAAAKAAKYGAAVPGVLGGLGALGGVGIPGGVVGAGPAAAAAAAKAAAKAAQFGLVGAAGLGGLGVGGLGVPGVGGLGGIPPAAAAKAAKYGAAGLGGVLGGAGQFPLGGVAARPGFGLSPIFPGGACLGKACGRKRK
notes: also called TE; source: E. coli, purified (acetone/buffer extraction, filtration, dialysis, freeze drying)
Kd: 146 nM
